This is an account of results in article PMC9407403 (Proceedings of the National Academy of Sciences of the …, 2022).

The test addresses T1, SARS-CoV-2 receptor-binding domain (RBD), recombinant antigen (SARS-CoV-2, UniProt P0DTC2).
T1 construct: source: bought: Wantai BioPharm (microplates precoated with recombinant RBD)
The test can be described thus: ELISA. As to conditions: both partners purified. Background: ELISA stands for enzyme-linked immunosorbent assay.

B1: neutralizing antibody X10 (mouse monoclonal antibody) (antibody, V domains shown)
VH: EVQLQQSGPELVKPGASVKISCKTSGYTFTEYTLHWVKQSHGKSLEWIGGFDPNFGGATYNLKFEDKATLTVDKSSNTAYMELRSLTSEDSAVFYCARGDYGTSYAYFDFWGQGTTLTVSS
VL: DIVLTQSPASLAVSLGQRAAISCRASQSVSTSSHNYVHWYQQRPGQPPKLLIKYASNLECGVPARFSGSGSGTDFTLNIHPVEEEDSAAYYCQHSWEIPYTFGGGTKLEIK
notes: also called nAb X10; cluster 2 representative; source: mouse hybridoma, ascitic fluid, purified (protein A agarose)
Take B1: the binding result is recorded as “binds”.

B2: neutralizing antibody X17 (mouse monoclonal antibody) (antibody, V domains shown)
VH: QVQLQQSGAELARPGASVKLSCKASGYTFTFYWMQWLKQRPGQGLEWIGAIYPGDGDTRYTQRFKDKATLTADKSSSTAYIQLSSLASEDSAVYYCAGGEYDNYGFDYWGQGTTLTVSS
VL: DIQMTQTTSSLSASLGDRVTISCRASQDISNYLNWYQQKPDGTVKLLIYYTSRLHSGVPSRFSGSGSGTDYSLTISNLEQEDIATYFCQQGTTLPYTFGGGTKLEIK
notes: also called nAb X17; cluster 1 representative; source: mouse hybridoma, ascitic fluid, purified (protein A agarose)
Take B2: the binding result was “binds”.
